Assay results from patent US20260035450A1 (Novo Nordisk, published 2026).

T1: recombinant human ANGPTL3 (rhANGPTL3) (SEQ ID NO:1) (human, UniProt Q9Y5C1 17-460)
T1 sequence: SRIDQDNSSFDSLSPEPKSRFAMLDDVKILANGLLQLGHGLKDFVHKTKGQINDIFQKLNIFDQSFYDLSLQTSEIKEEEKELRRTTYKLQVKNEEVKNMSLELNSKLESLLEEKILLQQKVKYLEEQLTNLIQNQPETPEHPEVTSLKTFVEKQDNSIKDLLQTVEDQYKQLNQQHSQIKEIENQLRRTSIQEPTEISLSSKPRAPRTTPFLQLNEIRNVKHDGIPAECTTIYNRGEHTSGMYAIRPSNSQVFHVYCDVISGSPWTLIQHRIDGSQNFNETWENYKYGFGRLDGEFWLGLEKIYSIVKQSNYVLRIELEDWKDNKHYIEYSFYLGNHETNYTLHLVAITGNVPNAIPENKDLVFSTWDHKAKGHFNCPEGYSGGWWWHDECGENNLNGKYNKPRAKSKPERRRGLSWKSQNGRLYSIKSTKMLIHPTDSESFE

B1: tmAb1 (antibody, human IgG1, kappa)
heavy: EVQLLESGGGLVQPGGSLRLSCAASGFNFRSYWMTWVRQAPGKGLEWVSSISSHSTYIYYADSVKGRFTISRDNSKNTLYLQMNSLRAEDTATYYCAREGWYDNWFDPWGQGTLVTVSSASTKGPSVFPLAPSSKSTSGGTAALGCLVKDYFPEPVTVSWNSGALTSGVHTFPAVLQSSGLYSLSSVVTVPSSSLGTQTYICNVNHKPSNTKVDKKVEPKSCDKTHTCPPCPAPEYLGGDSVFLFPPKPKDVLYITREPEVTCVVIDVSHEDPEVKFNWYVDGVEVHNAKTKPREEQYNSTYRVVSVLPVLHRDWLNGKEYKCKVSNKALPKPIEKTISKAKGQRREPQVYTLPPSREEMTKNQVSLWCLVKGFYPSDIAVEWESNGQPENNYKTTPPVLDSDGSFFLYSKLTVDKSRWQQGNVFSCSVMHEALHNHYTQKSLSLSP
chain: DKTHTCPPCPAPEYLGGDSVFLFPPKPKDVLYITREPEVTCVVIDVSHEDPEVKFNWYVDGVEVHNAKTKPREEQYNSTYRVVSVLPVLHRDWLNGKEYKCKVSNKALPKPIEKTISKAKGQRREPQVYTLPPSREEMTKNQVSLSCAVKGFYPSDIAVEWESNGQPENNYKTTPPVLDSDGSFFLVSKLTVDKSRWQQGNVFSCSVMHEALHNHYTQKSLSLSP
light: EIVLTQSPGTLSLSPGERATLSCRASQNIRSPYLAWYQQKPGQAPRLLIYGVSSRAAGIPDRFSGSGSGTDFTLTISRLEPEDFAVYYCQQYDDHPYTFGQGTKLEIKRTVAAPSVFIFPPSDEQLKSGTASVVCLLNNFYPREAKVQWKVDNALQSGNSQESVTEQDSKDSTYSLSSTLTLSKADYEKHKVYACEVTHQGLSSPVTKSFNRGEC
B2: tmAb2 (antibody, human IgG1, kappa)
heavy: EVQLLESGGGLVQPGGSLRLSCAASDFNFRSYWMTWVRQAPGKGLEWVSSISSHSTYIYYADSVKGRFTISRDNSKNTLYLQMNSLRAEDTATYYCAREGWYDNWFDPWGQGTLVTVSSASTKGPSVFPLAPSSKSTSGGTAALGCLVKDYFPEPVTVSWNSGALTSGVHTFPAVLQSSGLYSLSSVVTVPSSSLGTQTYICNVNHKPSNTKVDKKVEPKSCDKTHTCPPCPAPEYLGGDSVFLFPPKPKDVLYITREPEVTCVVIDVSHEDPEVKFNWYVDGVEVHNAKTKPREEQYNSTYRVVSVLPVLHRDWLNGKEYKCKVSNKALPKPIEKTISKAKGQRREPQVYTLPPSREEMTKNQVSLWCLVKGFYPSDIAVEWESNGQPENNYKTTPPVLDSDGSFFLYSKLTVDKSRWQQGNVFSCSVMHEALHNHYTQKSLSLSP
chain: DKTHTCPPCPAPEYLGGDSVFLFPPKPKDVLYITREPEVTCVVIDVSHEDPEVKFNWYVDGVEVHNAKTKPREEQYNSTYRVVSVLPVLHRDWLNGKEYKCKVSNKALPKPIEKTISKAKGQRREPQVYTLPPSREEMTKNQVSLSCAVKGFYPSDIAVEWESNGQPENNYKTTPPVLDSDGSFFLVSKLTVDKSRWQQGNVFSCSVMHEALHNHYTQKSLSLSP
light: EIVLTQSPGTLSLSPGERATLSCRASQNIRSPYLAWYQQKPGQAPRLLIYGVSSRAAGIPDRFSGSGSGTDFTLTISRLEPEDFAVYYCQQYDDHPYTFGQGTKLEIKRTVAAPSVFIFPPSDEQLKSGTASVVCLLNNFYPREAKVQWKVDNALQSGNSQESVTEQDSKDSTYSLSSTLTLSKADYEKHKVYACEVTHQGLSSPVTKSFNRGEC
B3: tmAb4 (antibody, human IgG1, kappa)
heavy: EVQLLESGGGLVQPGGSLRLSCAASGFNFESYWMTWVRQAPGKGLEWVSSISSHSTYIYYADSVKGRFTISRDNSKNTLYLQMNSLRAEDTATYYCAREGWYDNWNDPWGQGTLVTVSSASTKGPSVFPLAPSSKSTSGGTAALGCLVKDYFPEPVTVSWNSGALTSGVHTFPAVLQSSGLYSLSSVVTVPSSSLGTQTYICNVNHKPSNTKVDKKVEPKSCDKTHTCPPCPAPEYLGGDSVFLFPPKPKDVLYITREPEVTCVVIDVSHEDPEVKFNWYVDGVEVHNAKTKPREEQYNSTYRVVSVLPVLHRDWLNGKEYKCKVSNKALPKPIEKTISKAKGQRREPQVYTLPPSREEMTKNQVSLWCLVKGFYPSDIAVEWESNGQPENNYKTTPPVLDSDGSFFLYSKLTVDKSRWQQGNVFSCSVMHEALHNHYTQKSLSLSP
chain: DKTHTCPPCPAPEYLGGDSVFLFPPKPKDVLYITREPEVTCVVIDVSHEDPEVKFNWYVDGVEVHNAKTKPREEQYNSTYRVVSVLPVLHRDWLNGKEYKCKVSNKALPKPIEKTISKAKGQRREPQVYTLPPSREEMTKNQVSLSCAVKGFYPSDIAVEWESNGQPENNYKTTPPVLDSDGSFFLVSKLTVDKSRWQQGNVFSCSVMHEALHNHYTQKSLSLSP
light: EIVLTQSPGTLSLSPGERATLSCRASQNIRSPYLAWYQQKPGQAPRLLIYGVSSRAAGIPDRFSGSGSGTDFTLTISRLEPEDFAVYYCQQYDDHPYTFGQGTKLEIKRTVAAPSVFIFPPSDEQLKSGTASVVCLLNNFYPREAKVQWKVDNALQSGNSQESVTEQDSKDSTYSLSSTLTLSKADYEKHKVYACEVTHQGLSSPVTKSFNRGEC
B4: tmAb3 (antibody, human IgG1, kappa)
heavy: EVQLLESGGGLVQPGGSLRLSCAASGFNFESYWMTWVRQAPGKGLEWVSSISSHSTYIYYADSVKGRFTISRDNSKNTLYLQMNSLRAEDTATYYCAREGWYDNWFDPWGQGTLVTVSSASTKGPSVFPLAPSSKSTSGGTAALGCLVKDYFPEPVTVSWNSGALTSGVHTFPAVLQSSGLYSLSSVVTVPSSSLGTQTYICNVNHKPSNTKVDKKVEPKSCDKTHTCPPCPAPEYLGGDSVFLFPPKPKDVLYITREPEVTCVVIDVSHEDPEVKFNWYVDGVEVHNAKTKPREEQYNSTYRVVSVLPVLHRDWLNGKEYKCKVSNKALPKPIEKTISKAKGQRREPQVYTLPPSREEMTKNQVSLWCLVKGFYPSDIAVEWESNGQPENNYKTTPPVLDSDGSFFLYSKLTVDKSRWQQGNVFSCSVMHEALHNHYTQKSLSLSP
chain: DKTHTCPPCPAPEYLGGDSVFLFPPKPKDVLYITREPEVTCVVIDVSHEDPEVKFNWYVDGVEVHNAKTKPREEQYNSTYRVVSVLPVLHRDWLNGKEYKCKVSNKALPKPIEKTISKAKGQRREPQVYTLPPSREEMTKNQVSLSCAVKGFYPSDIAVEWESNGQPENNYKTTPPVLDSDGSFFLVSKLTVDKSRWQQGNVFSCSVMHEALHNHYTQKSLSLSP
light: EIVLTQSPGTLSLSPGERATLSCRASQNIRSPYLAWYQQKPGQAPRLLIYGVSSRAAGIPDRFSGSGSGTDFTLTISRLEPEDFAVYYCQQYDDHPYTFGQGTKLEIKRTVAAPSVFIFPPSDEQLKSGTASVVCLLNNFYPREAKVQWKVDNALQSGNSQESVTEQDSKDSTYSLSSTLTLSKADYEKHKVYACEVTHQGLSSPVTKSFNRGEC

What follows are binders tested against T1, recombinant human ANGPTL3 (rhANGPTL3) … (assay: cell-based or functional assay).

How did the “Average relative IC50 (inhibition of rhANGPTL3-mediated LPL inhibition)” value turn out when B1 was run?
The value was 3.7 relative to evinacumab SIA.

With B2 as the binder, how does the “Average relative IC50 (inhibition of rhANGPTL3-mediated LPL inhibition)” value read?
Its value is 2.5 relative to evinacumab SIA.

B3 was tested. Which “Average relative IC50 (inhibition of rhANGPTL3-mediated LPL inhibition)” value did it give?
Its value is 1.3 relative to evinacumab SIA.

With B4 as the binder, how does the “Average relative IC50 (inhibition of rhANGPTL3-mediated LPL inhibition)” value read?
The value was 4.8 relative to evinacumab SIA.
